From publication PMC1665450, “Molecular modeling and characterization of Vibrio cholerae transcription regulator HlyU” (BMC Structural Biology, 2006)

Molecular target: the molecule itself
Test: not stated; unpublished results (Saha & Chakrabarti); HlyU after cleavage of the N-terminal His6-tag

B1: Vibrio cholerae transcription regulator HlyU (natural protein)
chain: MPYLKGAPMNLQEMEKNSAKAVVLLKAMANERRLQILCMLLDNELSVGELSSRLELSQSALSQHLAWLRRDGLVNTRKEAQTVFYTLSSTEVKAMIELLHRLYCQANQ
notes: also called Vc-HlyU; not shown: His6, N-terminal, cleaved
stoichiometry N: 2
